Data on 2 proteins can be found in ChEMBL document CHEMBL1629614, “Inhibition of methionyl-tRNA synthetase by REP8839 and effects of resistance mutations on enzyme activity” (Antimicrob Agents Chemother, 2009).

Compound in series [1]: C=C(F)c1sc(CNCCCNc2cc(=O)c3ccccc3[nH]2)c(C)c1Br
The experiment in a line: Activity of Haemophilus influenzae MetRS by ATP:PPi exchange assay in presence of ATP.

Compound in series [2]: C=C(F)c1sc(CNCCCNc2cc(=O)c3ccccc3[nH]2)c(C)c1Br
The series can be described thus: Activity of Haemophilus influenzae MetRS by ATP:PPi exchange assay in presence of methionine.

Compound in series [3]: C=C(F)c1sc(CNCCCNc2cc(=O)c3ccccc3[nH]2)c(C)c1Br
The series can be described thus: Activity of Thermus thermophilus HB8 MetRS by ATP:PPi exchange assay in presence of methionine.

Compound in series [4]: C=C(F)c1sc(CNCCCNc2cc(=O)c3ccccc3[nH]2)c(C)c1Br
The experiment in a line: Activity of Thermus thermophilus HB8 MetRS by ATP:PPi exchange assay in presence of ATP.

B1: Methionine--tRNA ligase (Haemophilus influenzae (strain ATCC 51907 / DSM 11121 / KW20 / Rd)), P43828 (protein)
chain: MTTQPRKILVTCALPYANGAIHLGHMLEHIQADIWVRFQRMRGNKIHFVCADDAHGTPIMLNADKLGITPEELIAKAKADHIRDFAGFNISFDNYHSTHSEENKQLTAEIYNKLKANGFIKSKVISQLFDPEKNMFLPDRFVKGTCPKCKAEDQYGDNCEVCASTYSPMDLINPRSAVSGTTPIVKESEHFFFDLPAFEGMLKEWTRSGSLQSEIANKMQEWFESDLQQWDISRDAPYFGFEIPGAKDKFFYVWLDAPIGYMASFKNLCNREGIDFNEFWAEGSDAELYHFIGKDIVYFHSLFWPAMLEGSGYRKPTNVFAHGYVTVDGAKMSKSRGTFIQASTYLNHIDPECLRYYYAAKLNDRIEDLDFNLEDFVQRVNTDIVNKLVNLASRNAGFIAKRFEGKLADKLEDKSLFAEFTAQAEQIAAYYESREYNKTIREIMALTDKANKYIDEKAPWVIAKEEGKEAELQAVCSMGIELFRVLMSYLKPVLPKLAERAETFLQAELRWDNIHQPLLGHTLAPFKALFSRLEKKQIDAVVEETKALFAAANKAAEKTEAKPTALSAVEPIAETITIDDFAKLDMRVAKVLKCEAVPESNKLLRFELDLGDHTRQVFSGIKAAYNKPEELEGRFVIMVANLAPRKMKFGVSEGMILSAGTGGSDLFLLSADSGVTAGMQVK
In the case of B1, the Km in series [1] stood at 1200 µM; in series [2], 250 µM.

B2: Methionine--tRNA ligase (Thermus thermophilus (strain HB8 / ATCC 27634 / DSM 579)), P23395 (protein)
chain: MEKVFYVTTPIYYVNAEPHLGHAYTTVVADFLARWHRLDGYRTFFLTGTDEHGETVYRAAQAAGEDPKAFVDRVSGRFKRAWDLLGIAYDDFIRTTEERHKKVVQLVLKKVYEAGDIYYGEYEGLYCVSCERFYTEKELVEGLCPIHGRPVERRKEGNYFFRMEKYRPWLQEYIQENPDLIRPEGYRNEVLAMLAEPIGDLSISRPKSRVPWGIPLPWDENHVTYVWFDALLNYVSALDYPEGEAYRTFWPHAWHLIGKDILKPHAVFWPTMLKAAGIPMYRHLNVGGFLLGPDGRKMSKTLGNVVDPFALLEKYGRDALRYYLLREIPYGQDTPVSEEALRTRYEADLADDLGNLVQRTRAMLFRFAEGRIPEPVAGEELAEGTGLAGRLRPLVRELKFHVALEEAMAYVKALNRYINEKKPWELFKKEPEEARAVLYRVVEGLRIASILLTPAMPDKMAELRRALGLKEEVRLEEAERWGLAEPRPIPEEAPVLFPKKEAKVEAKPKEEAWIGIEDFAKVELRVAEVLAAEKHPNADRLLVLRLSLGNEERTVVSGIAKWYRPEELVGKKVVLVANLKPAKLRGIESQGMILAAQEGEALALVTVEGEVPPGAVVK
For B2, the figures for the Michaelis-Menten constant (Km) in series [3] and in series [4] were 18 µM and 180 µM, respectively.
